Measured values: US9999664B2, “HIV-1 gp120 mini V3 loop and uses thereof” (The Scripps Research Institute, priority 2011, dated 2018)

Columns and labels:
[1] = biological target: HIV-1 JR-FL envelope (Env) on pseudovirus (HIV-1 JR-FL)
[2] = biological target: HIV-1 JR-FL envelope (Env) on pseudovirus (HIV-1 JR-FL); remark: listed apart in the source
[3] = biological target: HIV-1 92RW020 envelope N332A on pseudovirus (HIV-1 92RW020); assay: cell-based or functional assay
[4] = biological target: HIV-1 ADA envelope N301A on pseudovirus (HIV-1 ADA); assay: cell-based or functional assay
[5] = biological target: HIV-1 ADA envelope N332A on pseudovirus (HIV-1 ADA); assay: cell-based or functional assay
[6] = biological target: HIV-1 BaL envelope N301A on pseudovirus (HIV-1 BaL); assay: cell-based or functional assay
[7] = biological target: HIV-1 BaL envelope N332A on pseudovirus (HIV-1 BaL); assay: cell-based or functional assay
[8] = biological target: HIV-1 JRCSF envelope N301A on pseudovirus (HIV-1 JR-CSF) (UniProt P20871); assay: cell-based or functional assay
[9] = biological target: HIV-1 JRCSF envelope N332A on pseudovirus (HIV-1 JR-CSF) (UniProt P20871); assay: cell-based or functional assay
[10] = biological target: HIV-1 JRFL envelope N301A on pseudovirus (HIV-1 JR-FL); assay: cell-based or functional assay
[11] = biological target: HIV-1 JRFL envelope N332A on pseudovirus (HIV-1 JR-FL); assay: cell-based or functional assay
[12] = biological target: HIV-1 SF162 envelope N301A on pseudovirus (HIV-1 SF162) (UniProt P19550); assay: cell-based or functional assay
[13] = biological target: HIV-1 SF162 envelope N332A on pseudovirus (HIV-1 SF162) (UniProt P19550); assay: cell-based or functional assay
[14] = biological target: gp120 (ELISA antigen of FIG. 3, strain not stated) (HIV-1, strain not stated); assay: ELISA on coated gp120, absorbance at 405 nm
[15] = biological target: HIV-1JR-FL Env trimers on the surface of transfected 293T cells (Human immunodeficiency virus 1, strain JR-FL); assay: JR-FL cell surface binding, flow cytometry on transfected 293T cells
[16] = biological target: engineered outer domain mini-V3 (eODmV3), glycosylated gp120 outer domain construct (HIV-1 (base strain HxB2; mini-V3 based on JR-FL)); assay: ELISA of IgG PGT 128 (FIG. 13)
JR-FL core + mini-V3 = assay: ELISA on coated antigen, OD 405
[17] = biological target: HIV-1YU2 Env on the surface of transfected 293T cells (Human immunodeficiency virus 1, strain YU2); assay: flow cytometry on HIV-1YU2 Env-transfected 293T cells, MFI

Row | Substance | IC50 (read off the curve; HIV-1JR-FL pseudovirus) [1] [µg/mL] | IC50 (JR-FL neutralization) [2] [nM] | fold change in IC50 of variant envelope compared to WT envelope [3] [fold] | fold change in IC50 of variant envelope compared to WT envelope [4] [fold] | fold change in IC50 of variant envelope compared to WT envelope [5] [fold] | fold change in IC50 of variant envelope compared to WT envelope [6] [fold] | fold change in IC50 of variant envelope compared to WT envelope [7] [fold] | fold change in IC50 of variant envelope compared to WT envelope [8] [fold] | fold change in IC50 of variant envelope compared to WT envelope [9] [fold] | fold change in IC50 of variant envelope compared to WT envelope [10] [fold] | fold change in IC50 of variant envelope compared to WT envelope [11] [fold] | fold change in IC50 of variant envelope compared to WT envelope [12] [fold] | fold change in IC50 of variant envelope compared to WT envelope [13] [fold] | EC50 (read off the curve) [14] [µg/mL] | EC50 [15] [nM] | apparent affinity [16] [nM] | EC50 (read off the curve) (JR-FL core + mini-V3) [nM] | EC50 (read off the curve) [17] [nM]
1 | PGT 127 IgG (antibody) | 0.02 | 0.18 | 6.3 | > 200 | > 200 | > 200 | > 200 | > 250 | > 200 | > 200 | > 200 | > 200 | > 200 | 0.08 | 3.1 |  |  | 
2 | PGT 128 IgG (antibody) | 0.01 | 0.09 | 1.6 | > 200 | > 200 | > 200 | > 200 | 10.7 | 1.4 | > 200 | > 200 | > 200 | > 200 | 0.04 | 2.8 | 46 | 2 | 8
